Assay [1] addresses HLA-B*39:01. Put plainly: IEDB peptide-MHC binding, purified MHC/competitive/fluorescence; filed as Kd, often an IC50 or EC50 that approximates it; ≥ and ≤ were set here for values at or beyond the usual limits of such assays.
In assay [2] the target is HLA-B*27:05. Put plainly: IEDB peptide-MHC binding, purified MHC/direct/fluorescence; filed as Kd, often an IC50 or EC50 that approximates it; ≥ and ≤ were set here for values at or beyond the usual limits of such assays.
Assay [3] deals with HLA-A*26:01. Described as above.
In assay [4] the target is HLA-B*15:01. The description is as above.
Assay [5] has as its target HLA-B*15:17. The description is as above. Conditions: source organism: Mycobacterium tuberculosis.
The target in assay [6] is HLA-B*40:01. The description is as above.
Assay [7] has as its target HLA-A*02:01. The assay is described as above.
Assay [8] addresses HLA-B*18:01. The description is as above.
In assay [9] the target is HLA-B*08:02. The description is as above.
Assay [10] deals with HLA-A*11:01. Described as above. Conditions: source organism: Mycobacterium tuberculosis.
The target in assay [11] is HLA-A*01:01. The description is as above.
Assay [12] concerns the target HLA-A*03:01. Described as above.
Assay [13] addresses HLA-B*57:01. The assay is described as above. Conditions: source organism: Mycobacterium tuberculosis.
For assay [14], the target named is HLA-A*31:01. The assay is described as above. Conditions: source organism: Mycobacterium tuberculosis.
Assay [15] has as its target HLA-B*48:01. The assay is described as above. Conditions: source organism: Mycobacterium tuberculosis.
The target in assay [16] is HLA-A*69:01. Described as above. Conditions: source organism: Mycobacterium tuberculosis.
Assay [17] deals with HLA-B*46:01. Described as above.
Assay [18] deals with HLA-B*58:01. Described as above.
Assay [19] has as its target HLA-B*51:01. Described as above. Conditions: source organism: Mycobacterium tuberculosis.
Assay [20] has as its target HLA-A*26:01. The assay is described as follows: IEDB peptide-MHC binding, purified MHC/competitive/fluorescence; filed as Kd, often an IC50 or EC50 that approximates it; ≥ and ≤ were set here for values at or beyond the usual limits of such assays. Conditions: source organism: Zaire ebolavirus.
Assay [21] concerns the target HLA-B*15:01. The assay is described as above. Conditions: source organism: Zaire ebolavirus.
The target of assay [22] is HLA-A*02:01. Described as above. Conditions: source organism: Zaire ebolavirus.
Assay [23] addresses HLA-B*57:01. The assay is described as above. Conditions: source organism: Zaire ebolavirus.
For assay [24], the target named is HLA-B*27:03. The assay is described as above. Conditions: source organism: Zaire ebolavirus.
Assay [25] addresses HLA-A*69:01. The assay is described as above. Conditions: source organism: Zaire ebolavirus.
The target of assay [26] is HLA-B*46:01. Described as above. Conditions: source organism: Zaire ebolavirus.
The target in assay [27] is HLA-B*51:01. The description is as above. Conditions: source organism: Zaire ebolavirus.
In assay [28] the target is HLA-A*02:19. The assay is described as follows: IEDB peptide-MHC binding, purified MHC/direct/fluorescence; filed as Kd, often an IC50 or EC50 that approximates it; ≥ and ≤ were set here for values at or beyond the usual limits of such assays.
Assay [29] has as its target HLA-A*29:02. The assay is described as above. Conditions: source organism: Zaire ebolavirus.
Assay [30] deals with HLA-A*02:03. The description is as above.
Assay [31] concerns the target HLA-A*02:12. The description is as above. Conditions: source organism: Zaire ebolavirus.
The target of assay [32] is HLA-A*68:02. The assay is described as above. Conditions: source organism: Zaire ebolavirus.
Assay [33] deals with HLA-A*24:03. The assay is described as above. Conditions: source organism: Zaire ebolavirus.
For assay [34], the target named is HLA-B*15:01. The assay is described as follows: IEDB peptide-MHC binding, purified MHC/competitive/radioactivity; filed as Kd, often an IC50 or EC50 that approximates it; ≥ and ≤ were set here for values at or beyond the usual limits of such assays. Conditions: source organism: Dengue virus 2 Jamaica/1409/1983.
The target in assay [35] is HLA-A*31:01. Put plainly: IEDB peptide-MHC binding, purified MHC/competitive/fluorescence; filed as Kd, often an IC50 or EC50 that approximates it; ≥ and ≤ were set here for values at or beyond the usual limits of such assays. Conditions: source organism: Influenza A virus (A/Fort Monmouth/1/1947-mouse adapted(H1N1)).
Assay [36] deals with HLA-B*44:02. Put plainly: IEDB peptide-MHC binding, purified MHC/direct/fluorescence; filed as Kd, often an IC50 or EC50 that approximates it; ≥ and ≤ were set here for values at or beyond the usual limits of such assays. Conditions: source organism: Influenza A virus (A/swine/Hong Kong/5190/99(H3N2)).
Assay [37] concerns the target HLA-B*15:09. The description is as above. Conditions: source organism: Influenza A virus(A/swine/Henan/5/2004(H9N2)).
In assay [38] the target is HLA-A*24:02. The description is as above. Conditions: source organism: Influenza A virus (A/swine/Hong Kong/5190/99(H3N2)).
In assay [39] the target is HLA-A*02:11. The assay is described as above. Conditions: source organism: Influenza A virus(A/swine/Henan/5/2004(H9N2)).
The target in assay [40] is HLA-B*07:02. The description is as above. Conditions: source organism: Influenza A virus (A/swine/Hong Kong/5190/99(H3N2)).
Where [41] appears, read: source organism: Mycobacterium tuberculosis.
[42] abbreviates: source organism: Mycobacterium tuberculosis C.
Setting [43] is: source organism: Zaire ebolavirus.
[44] abbreviates: source organism: Influenza A virus (A/Puerto Rico/8/34/Mount Sinai(H1N1)).
Where [45] appears, read: source organism: Influenza A virus(A/swine/Henan/5/2004(H9N2)).
Setting [46] is: source organism: Influenza A virus (A/swine/Hong Kong/5190/99(H3N2)).

Four sequences from the Immune Epitope Database (IEDB) can be followed below.

KPARGGSSI: the Kd in assay [1] (source organism: Parafrankia sp. EAN1pec) is 2.76 µM; in assay [2] (setting [41]) it was not below 20 µM; in [3] (setting [42]) it was not below 20 µM; in assay [4] (setting [41]) it was not below 20 µM; in assay [5] it was not below 20 µM; in [6] (setting [41]), not below 20 µM. The dissociation constant Kd in assay [7] (setting [41]), in assay [8] (setting [41]), in assay [9] (setting [42]), in assay [10], in assay [11] (setting [41]) and in [12] (setting [41]) was not below 20 µM each time. In addition, the Kd in [13], in assay [14], in assay [15], in assay [16], in assay [17] (setting [41]) and in assay [18] (setting [41]) was not below 20 µM each time. The same sequence returned an equilibrium dissociation constant (Kd) in [19] of 2.62 µM.
For LEFNSSLAI, the dissociation constant (Kd) in [20], in assay [21], in assay [22], in [1] (setting [43]), in assay [23] and in assay [24] was not below 20 µM each time. In addition, the dissociation constant Kd in [25] was not below 20 µM; in [26], not below 20 µM; in assay [27] it was not below 20 µM; in [6] (source organism: Ebola virus - Gabon (1994-1997)), 0.0258 µM; in assay [28] (setting [43]), not below 20 µM; in assay [12] (setting [43]), not below 20 µM. Moreover, the equilibrium dissociation constant (Kd) in assay [29], in assay [30] (setting [43]), in assay [31], in assay [32] and in [33] was not below 20 µM throughout.
As to QLKGMSYSM, the equilibrium dissociation constant (Kd) in [9] (source organism: Dengue virus 2 Thailand/16681/84) was not below 20 µM; in [34], 0.0539 µM.
For the sequence YMFESKSMK, the Kd was 0.0212 µM in assay [35]; 0.155 µM in assay [2] (setting [44]); not below 20 µM in assay [3] (setting [45]); not below 20 µM in [4] (setting [46]); not below 20 µM in [6] (setting [46]); 0.478 µM in [7] (setting [44]). Further, the Kd is not below 20 µM in assay [28] (setting [45]); not below 20 µM in [8] (setting [46]); not below 20 µM in assay [36]; not below 20 µM in assay [37]; not below 20 µM in assay [11] (setting [46]); 0.232 µM in [12] (setting [44]). Moreover, the Kd is 0.024 µM in assay [30] (setting [45]); not below 20 µM in assay [38]; not below 20 µM in assay [17] (setting [46]); not below 20 µM in [18] (setting [46]); 0.003 µM in assay [39]; not below 20 µM in assay [40].
